Test results taken from PMC9063846 (Acta Crystallographica. Section D, Structural Biology, 2022).

Biological target: the molecule itself
Test: SEC-MALS; SEC-MALLS; Superdex 200 Increase 10/300 GL; 100 µl injected at 2 mg/ml; 20 mM HEPES, 200 mM NaCl pH 7.4; room temperature (20 ± 2 °C)

B1: Phocaeicola vulgatus sialic acid 9-O-acetylesterase (PvSAE), His6-tagged (enzyme)
chain: ERKYSTFYEQRATLFEELPVTSKDIIFLGNSITNGCEWAELFQNKNVKNRGISGDICMGVYDRLDPIVKGKPAKIFLLIGINDVSRGTSADKIISEISMIVRKIKQESPKTKLYLQSVLPVNDCYGMFNGHTSRWQVVKQINDLLEPLAVKEGVAYIDLYSHFVEKETGKMNPVYTNDGLHLLGKGYLLWRDIVKPYVDQK
notes: Sialic acid 9-O-acetylesterase PvSAE (BVU4141) of Phocaeicola vulgatus, GenBank ABR41743.1, without its signal peptide; the text says that the signal peptide is predicted to be cut between residues 19 and 20; Homodimer by SEC-MALLS and in both crystal forms; also called His6-PvSAE; P. vulgatus 9-O-acetylsialic acid esterase
With B1 the “stoichiometry N” value was 2.
